Results as given in the Human Domainome abundance scans (Beltran et al. 2025).
± gives the uncertainty stated by the source.

B1: Connector enhancer of kinase suppressor of ras 2, residues 9 to 71; numbered along this chain, Q8WXI2 (parent)
chain: SKWSPSQVVDWMKGLDDCLQQYIKNFEREKISGDQLLRITHQELEDLGVSRIGHQELILEAVD

Variants of: B1
Test: abundance fitness (aPCA) (normalised: wild type 0, dead -1); higher = more abundant; growth selection in yeast, the domain comes from the species named
Settings: Homo sapiens

Variant	abundance fitness
G33T	-0.645 ± 0.046
G33N	-0.947 ± 0.12
G33A	-0.745 ± 0.05
G33C	-0.833 ± 0.07
G33E	-0.855 ± 0.092
G33I	-0.387 ± 0.1
G33W	-0.216 ± 0.045
G33F	-0.198 ± 0.05
G33K	-0.462 ± 0.07
G33M	-0.236 ± 0.046
G33P	-0.84 ± 0.069
G33H	-0.669 ± 0.073
G33Q	-0.559 ± 0.051
G33V	-0.417 ± 0.041
G33S	-0.668 ± 0.04
G33R	-0.631 ± 0.028
G33Y	-0.257 ± 0.039
G33L	-0.423 ± 0.034
G33D	-0.906 ± 0.067
K13N	-0.212 ± 0.055
K13R	-0.003 ± 0.028
K13P	-0.895 ± 0.075
K13Y	-0.242 ± 0.056
K13L	-0.23 ± 0.024

Variant	abundance fitness
K13M	-0.103 ± 0.029
K13W	-0.339 ± 0.034
K13T	-0.237 ± 0.046
K13I	-0.422 ± 0.052
K13V	-0.391 ± 0.026
K13S	-0.179 ± 0.027
C18I	-0.439 ± 0.061
C18M	-0.442 ± 0.042
C18D	0.006 ± 0.043
C18F	-0.823 ± 0.077
C18S	-0.024 ± 0.022
C18W	-0.991 ± 0.069
C18L	-0.885 ± 0.049
C18K	-0.301 ± 0.047
C18G	-0.182 ± 0.026
C18N	-0.132 ± 0.045
C18Q	-0.124 ± 0.039
C18P	-0.239 ± 0.033
C18T	-0.221 ± 0.04
C18Y	-0.877 ± 0.061
C18R	-0.314 ± 0.032
C18V	-0.118 ± 0.024
G14F	-1.06 ± 0.13
G14H	-0.468 ± 0.1

Variant	abundance fitness
G14E	-0.225 ± 0.034
G14W	-0.986 ± 0.1
G14M	-0.421 ± 0.043
G14Y	-1.04 ± 0.11
G14C	-0.34 ± 0.036
G14L	-0.579 ± 0.031
G14A	-0.41 ± 0.034
G14Q	-0.196 ± 0.047
G14I	-0.922 ± 0.13
G14V	-0.895 ± 0.053
G14R	-0.3 ± 0.025
G14S	-0.005 ± 0.027
G14K	-0.264 ± 0.045
F26A	-0.824 ± 0.041
F26Q	-0.772 ± 0.05
F26R	-0.867 ± 0.039
F26N	-0.893 ± 0.13
F26H	-0.929 ± 0.081
F26M	-0.709 ± 0.062
F26K	-0.852 ± 0.027
F26W	-0.785 ± 0.052
F26V	-0.485 ± 0.027
F26I	-0.356 ± 0.12
F26P	-0.592 ± 0.063

Variant	abundance fitness
F26T	-0.774 ± 0.069
F26S	-0.779 ± 0.025
F26Y	-0.908 ± 0.09
F26G	-0.727 ± 0.035
L19N	-0.593 ± 0.054
L19W	-0.936 ± 0.06
L19C	-0.244 ± 0.034
L19H	-0.568 ± 0.061
L19A	-0.652 ± 0.033
L19F	-0.548 ± 0.052
L19T	-0.508 ± 0.036
L19D	-0.608 ± 0.042
L19R	-0.763 ± 0.036
L19V	-0.112 ± 0.026
L19I	-0.102 ± 0.066
L19G	-0.68 ± 0.027
L19E	-0.74 ± 0.049
L19P	-0.602 ± 0.044
L19M	-0.2 ± 0.044
L19S	-0.642 ± 0.037
L19Y	-0.816 ± 0.085
L19Q	-0.604 ± 0.047
Q21R	-0.144 ± 0.026
Q21P	0.038 ± 0.035

Variant	abundance fitness
Q21S	-0.118 ± 0.024
Q21L	-0.275 ± 0.025
Q21M	-0.102 ± 0.032
Q21Y	-0.459 ± 0.066
Q21C	-0.022 ± 0.048
Q21K	-0.204 ± 0.039
Q21F	-0.539 ± 0.041
Q21N	-0.4 ± 0.041
Q21E	-0.076 ± 0.037
Q21G	-0.032 ± 0.03
Q21W	-0.933 ± 0.062
Q21H	-0.257 ± 0.04
Q21D	-0.095 ± 0.035
Q21I	-0.088 ± 0.043
Q21V	-0.072 ± 0.024
I31N	-0.732 ± 0.07
I31Y	-0.948 ± 0.25
I31C	-0.99 ± 0.1
I31K	-0.886 ± 0.063
I31Q	-0.87 ± 0.082
I31A	-0.914 ± 0.043
I31W	-0.74 ± 0.056
I31D	-0.931 ± 0.1
I31E	-0.827 ± 0.051

Variant	abundance fitness
I31M	-0.361 ± 0.028
I31F	-0.573 ± 0.077
I31H	-0.71 ± 0.069
I31L	-0.26 ± 0.03
I31V	-0.053 ± 0.027
I31R	-0.873 ± 0.041
I31P	-0.744 ± 0.061
Y22L	-0.899 ± 0.053
Y22H	-0.542 ± 0.057
Y22S	-0.742 ± 0.043
Y22I	-0.834 ± 0.085
Y22W	-0.632 ± 0.06
Y22V	-0.806 ± 0.034
Y22D	-0.571 ± 0.037
Y22E	-0.753 ± 0.06
Y22N	-0.747 ± 0.062
Y22R	-0.728 ± 0.035
Y22G	-0.702 ± 0.027
Y22T	-0.653 ± 0.035
Y22A	-0.863 ± 0.035
Y22P	-0.753 ± 0.08
Y22K	-0.578 ± 0.091
Y22Q	-0.636 ± 0.062
N25P	-0.307 ± 0.033

Variant	abundance fitness
N25S	-0.05 ± 0.028
N25K	-0.258 ± 0.039
N25M	-0.014 ± 0.045
N25I	-0.088 ± 0.083
N25D	-0.08 ± 0.047
N25L	-0.089 ± 0.026
N25C	-0.066 ± 0.03
N25Q	-0.133 ± 0.033
N25A	-0.007 ± 0.033
N25E	-0.168 ± 0.037
N25H	-0.055 ± 0.046
N25W	-0.443 ± 0.03
N25F	-0.078 ± 0.048
N25Y	-0.036 ± 0.084
N25G	-0.139 ± 0.03
S32N	0.024 ± 0.043
S32G	-0.074 ± 0.022
S32R	-0.142 ± 0.022
S32V	-0.475 ± 0.037
S32P	-0.624 ± 0.053
S32A	-0.077 ± 0.03
S32W	-0.322 ± 0.028
S32T	0.022 ± 0.03
